Measurements: publication PMC9482650, “Quantitative fragmentomics allow affinity mapping of interactomes” (Nature Communications, 2022)

T1: MPDZ_10, O75970
T1 sequence (O75970 1624-1722, limits assumed, looked up): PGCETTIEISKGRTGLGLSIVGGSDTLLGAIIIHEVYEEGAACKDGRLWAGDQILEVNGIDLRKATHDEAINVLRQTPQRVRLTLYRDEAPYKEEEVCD

T2: RADIL, Q96JH8
T2 sequence (Q96JH8 971-1071, limits assumed, looked up): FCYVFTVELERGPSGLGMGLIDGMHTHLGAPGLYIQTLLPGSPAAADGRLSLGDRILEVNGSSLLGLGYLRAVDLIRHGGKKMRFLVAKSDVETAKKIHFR

T3: MPDZ_5, O75970
T3 sequence (O75970 695-796, limits assumed, looked up): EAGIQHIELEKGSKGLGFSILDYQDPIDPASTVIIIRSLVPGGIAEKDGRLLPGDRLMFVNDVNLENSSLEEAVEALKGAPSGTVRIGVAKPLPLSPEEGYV

T4: PDZD7_3, Q9H5P4
T4 sequence (Q9H5P4 857-944, limits assumed, looked up): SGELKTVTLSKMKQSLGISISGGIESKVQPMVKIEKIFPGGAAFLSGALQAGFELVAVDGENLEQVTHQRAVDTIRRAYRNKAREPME

T5: PCLO, Q9Y6V0
T5 sequence (Q9Y6V0 4491-4600, limits assumed, looked up): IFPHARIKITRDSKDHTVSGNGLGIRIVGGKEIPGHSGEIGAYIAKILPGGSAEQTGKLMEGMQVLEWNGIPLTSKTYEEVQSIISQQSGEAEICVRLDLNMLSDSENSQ

T6: SNTG1, Q9NSN8
T6 sequence (Q9NSN8 52-150, limits assumed, looked up): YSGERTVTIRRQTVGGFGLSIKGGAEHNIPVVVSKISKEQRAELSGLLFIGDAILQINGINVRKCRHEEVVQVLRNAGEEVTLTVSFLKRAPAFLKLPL

T7: DVL3, Q92997
T7 sequence (Q92997 244-331, limits assumed, looked up): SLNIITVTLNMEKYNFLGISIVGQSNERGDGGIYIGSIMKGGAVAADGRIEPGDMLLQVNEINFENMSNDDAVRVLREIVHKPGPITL

T8: GRIP1_3, Q9Y3R0
T8 sequence (Q9Y3R0 247-346, limits assumed, looked up): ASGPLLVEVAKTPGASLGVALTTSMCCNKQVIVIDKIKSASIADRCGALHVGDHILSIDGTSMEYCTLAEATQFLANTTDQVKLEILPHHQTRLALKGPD

T9: APBA3_1, O96018
T9 sequence (O96018 389-490, limits assumed, looked up): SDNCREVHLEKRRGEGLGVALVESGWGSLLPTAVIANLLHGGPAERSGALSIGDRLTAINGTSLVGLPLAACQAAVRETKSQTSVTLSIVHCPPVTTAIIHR

T10: SHANK1, Q9Y566
T10 sequence (Q9Y566 658-767, limits assumed, looked up): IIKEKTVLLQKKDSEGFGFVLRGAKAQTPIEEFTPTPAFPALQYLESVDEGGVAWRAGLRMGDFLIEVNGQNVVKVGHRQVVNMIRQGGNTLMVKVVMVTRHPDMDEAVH

T11: SNTA1, Q13424
T11 sequence (Q13424 82-180, limits assumed, looked up): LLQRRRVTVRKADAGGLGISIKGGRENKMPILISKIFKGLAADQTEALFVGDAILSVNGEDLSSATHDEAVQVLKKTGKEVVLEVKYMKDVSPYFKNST

T12: LNX2_2, Q8N448
T12 sequence (Q8N448 334-432, limits assumed, looked up): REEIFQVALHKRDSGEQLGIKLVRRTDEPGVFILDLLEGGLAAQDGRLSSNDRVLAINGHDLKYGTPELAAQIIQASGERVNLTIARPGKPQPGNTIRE

T13: PARD3B_1, Q8TEW8
T13 sequence (Q8TEW8 196-299, limits assumed, looked up): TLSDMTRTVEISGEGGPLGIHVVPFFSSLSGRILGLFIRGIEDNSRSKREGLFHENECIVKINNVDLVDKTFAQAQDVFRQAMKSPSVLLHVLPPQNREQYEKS


Columns and labels:
Assay in all cases: holdup assay
Design in all cases: key: below the threshold = too weak to quantify, mostly under pKd 3.1 to 4
Conditions in all cases: plain residues with an end cap or a label only (N-terminal biotin on a linker: ado-ado)
MAGI2_4, Q86UL8 = biological target: MAGI2_4, Q86UL8
LNX1_1, Q8TBB1 = biological target: LNX1_1, Q8TBB1
MPDZ_10, O75970 = biological target: T1, MPDZ_10, O75970
Inadl_3, Q8NI35 = biological target: Inadl_3, Q8NI35
PDZRN4_1, Q6ZMN7 = biological target: PDZRN4_1, Q6ZMN7
IL16_1, Q14005 = biological target: IL16_1, Q14005
FRMPD2_3, Q68DX3 = biological target: FRMPD2_3, Q68DX3
RADIL, Q96JH8 = biological target: T2, RADIL, Q96JH8
MPDZ_5, O75970 = biological target: T3, MPDZ_5, O75970
DLG4_2, P78352 = biological target: DLG4_2, P78352
GRID2IP_1, A4D2P6 = biological target: GRID2IP_1, A4D2P6
PDZD7_3, Q9H5P4 = biological target: T4, PDZD7_3, Q9H5P4
PCLO, Q9Y6V0 = biological target: T5, PCLO, Q9Y6V0
LIMK2, P53671 = biological target: LIMK2, P53671
SNTG1, Q9NSN8 = biological target: T6, SNTG1, Q9NSN8
DVL3, Q92997 = biological target: T7, DVL3, Q92997
GRIP1_3, Q9Y3R0 = biological target: T8, GRIP1_3, Q9Y3R0
CASK, O14936 = biological target: CASK, O14936
APBA3_1, O96018 = biological target: T9, APBA3_1, O96018
MAGI1_2, Q96QZ7 = biological target: MAGI1_2, Q96QZ7
SHANK1, Q9Y566 = biological target: T10, SHANK1, Q9Y566
SNTA1, Q13424 = biological target: T11, SNTA1, Q13424
LNX2_2, Q8N448 = biological target: T12, LNX2_2, Q8N448
PARD3B_1, Q8TEW8 = biological target: T13, PARD3B_1, Q8TEW8

Chain of LNX1_1, Q8TBB1 (Q8TBB1 261-371): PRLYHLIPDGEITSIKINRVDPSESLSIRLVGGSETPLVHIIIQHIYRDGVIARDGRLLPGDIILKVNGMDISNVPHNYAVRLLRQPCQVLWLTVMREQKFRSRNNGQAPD
Chain of Inadl_3, Q8NI35 (Q8NI35 359-469): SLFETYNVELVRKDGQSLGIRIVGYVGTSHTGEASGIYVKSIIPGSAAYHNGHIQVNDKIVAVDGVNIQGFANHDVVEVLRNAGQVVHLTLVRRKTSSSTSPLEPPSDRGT
Chain of MAGI1_2, Q96QZ7 (Q96QZ7 456-580): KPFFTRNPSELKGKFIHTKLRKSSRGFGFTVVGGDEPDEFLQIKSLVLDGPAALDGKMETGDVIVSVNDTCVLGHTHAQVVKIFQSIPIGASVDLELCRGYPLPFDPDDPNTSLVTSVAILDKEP
Chain of GRID2IP_1, A4D2P6 (A4D2P6 1-87): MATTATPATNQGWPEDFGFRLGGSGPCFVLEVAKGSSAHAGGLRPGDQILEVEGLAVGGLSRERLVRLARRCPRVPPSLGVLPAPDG
Chain of MAGI2_4, Q86UL8 (Q86UL8 772-865): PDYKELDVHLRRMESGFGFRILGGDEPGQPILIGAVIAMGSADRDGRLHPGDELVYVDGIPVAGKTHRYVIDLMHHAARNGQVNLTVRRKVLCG
Chain of CASK, O14936 (O14936 487-570): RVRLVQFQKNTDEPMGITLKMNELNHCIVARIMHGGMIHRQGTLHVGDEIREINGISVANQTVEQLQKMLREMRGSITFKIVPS
Chain of PDZRN4_1, Q6ZMN7 (Q6ZMN7 213-318): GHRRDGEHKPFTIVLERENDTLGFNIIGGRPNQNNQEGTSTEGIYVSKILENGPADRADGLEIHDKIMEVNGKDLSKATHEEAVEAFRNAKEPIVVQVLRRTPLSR
Chain of DLG4_2, P78352 (P78352 155-259): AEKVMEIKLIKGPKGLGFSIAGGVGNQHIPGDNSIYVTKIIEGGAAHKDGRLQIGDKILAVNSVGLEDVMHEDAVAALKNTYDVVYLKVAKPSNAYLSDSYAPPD
Chain of IL16_1, Q14005 (Q14005 210-306): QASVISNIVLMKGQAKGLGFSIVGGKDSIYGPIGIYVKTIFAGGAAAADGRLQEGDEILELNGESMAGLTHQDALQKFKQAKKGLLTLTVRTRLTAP
Chain of LIMK2, P53671 (P53671 143-248): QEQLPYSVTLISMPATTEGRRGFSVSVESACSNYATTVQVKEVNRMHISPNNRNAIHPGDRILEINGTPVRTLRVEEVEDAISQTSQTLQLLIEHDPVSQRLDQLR
Chain of FRMPD2_3, Q68DX3 (Q68DX3 1073-1166): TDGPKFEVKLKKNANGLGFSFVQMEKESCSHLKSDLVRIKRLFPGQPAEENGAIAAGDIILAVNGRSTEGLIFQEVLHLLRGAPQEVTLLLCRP

| Binder | pKd (MAGI2_4, Q86UL8) | pKd (LNX1_1, Q8TBB1) | pKd (MPDZ_10, O75970) | pKd (Inadl_3, Q8NI35) | pKd (PDZRN4_1, Q6ZMN7) | pKd (IL16_1, Q14005) | pKd (FRMPD2_3, Q68DX3) | pKd (RADIL, Q96JH8) | pKd (MPDZ_5, O75970) | pKd (DLG4_2, P78352) | pKd (GRID2IP_1, A4D2P6) | pKd (PDZD7_3, Q9H5P4) | pKd (PCLO, Q9Y6V0) | pKd (LIMK2, P53671) | pKd (SNTG1, Q9NSN8) | pKd (DVL3, Q92997) | pKd (GRIP1_3, Q9Y3R0) | pKd (CASK, O14936) | pKd (APBA3_1, O96018) | pKd (MAGI1_2, Q96QZ7) | further results |
| --- | --- | --- | --- | --- | --- | --- | --- | --- | --- | --- | --- | --- | --- | --- | --- | --- | --- | --- | --- | --- | --- |
| IPGKEFDTPL [PLCB1, Q9NQ66] | below the threshold | below the threshold | below the threshold | below the threshold | 4.3 | below the threshold | below the threshold | below the threshold | below the threshold | below the threshold | below the threshold | 3.8 | below the threshold | below the threshold | below the threshold | below the threshold | below the threshold | below the threshold | below the threshold | below the threshold | pKd (SHANK1, Q9Y566): 3.96; pKd (SNTA1, Q13424): 3.51; pKd (LNX2_2, Q8N448): below the threshold; pKd (PARD3B_1, Q8TEW8): below the threshold |
| ALPLPQSSTC [IGF1R, P08069] | below the threshold | 3.58 | 3.56 | below the threshold | below the threshold | below the threshold | 3.54 | below the threshold | below the threshold | 3.76 | below the threshold | below the threshold | below the threshold | below the threshold | below the threshold | below the threshold | below the threshold | below the threshold | below the threshold | below the threshold | pKd (SHANK1, Q9Y566): below the threshold; pKd (SNTA1, Q13424): below the threshold; pKd (LNX2_2, Q8N448): 3.55; pKd (PARD3B_1, Q8TEW8): below the threshold |
| NLQEHSTTSV [RSBN1, Q5VWQ0] | 3.5 | below the threshold | below the threshold | below the threshold | below the threshold | below the threshold | below the threshold | below the threshold | below the threshold | 3.88 | below the threshold | 4 | below the threshold | below the threshold | 3.65 | below the threshold | below the threshold | below the threshold | below the threshold | 3.53 | pKd (SHANK1, Q9Y566): 3.91; pKd (SNTA1, Q13424): below the threshold; pKd (LNX2_2, Q8N448): 4.05; pKd (PARD3B_1, Q8TEW8): below the threshold |

Continued, in another order:

| pKd (MAGI2_4, Q86UL8) | pKd (LNX1_1, Q8TBB1) | pKd (MPDZ_10, O75970) | pKd (Inadl_3, Q8NI35) | pKd (PDZRN4_1, Q6ZMN7) | pKd (IL16_1, Q14005) | pKd (FRMPD2_3, Q68DX3) | pKd (RADIL, Q96JH8) | pKd (MPDZ_5, O75970) | pKd (DLG4_2, P78352) | pKd (GRID2IP_1, A4D2P6) | pKd (PDZD7_3, Q9H5P4) | pKd (PCLO, Q9Y6V0) | pKd (LIMK2, P53671) | pKd (SNTG1, Q9NSN8) | pKd (DVL3, Q92997) | pKd (GRIP1_3, Q9Y3R0) | pKd (CASK, O14936) | pKd (APBA3_1, O96018) | pKd (MAGI1_2, Q96QZ7) | Binder | further results |
| --- | --- | --- | --- | --- | --- | --- | --- | --- | --- | --- | --- | --- | --- | --- | --- | --- | --- | --- | --- | --- | --- |
| 4.26 | 5.09 | 4.3 | 4.67 | 4.19 | 3.67 | below the threshold | 5.25 | below the threshold | 3.95 | below the threshold | 5.44 | below the threshold | below the threshold | below the threshold | 4.33 | below the threshold | below the threshold | below the threshold | 4.92 | REKKFFCTIL [GNG4, P50150] | pKd (SHANK1, Q9Y566): 5.21; pKd (SNTA1, Q13424): 4.35; pKd (LNX2_2, Q8N448): 4.06; pKd (PARD3B_1, Q8TEW8): 5 |
| below the threshold | below the threshold | below the threshold | below the threshold | below the threshold | below the threshold | below the threshold | below the threshold | below the threshold | below the threshold | below the threshold | below the threshold | below the threshold | below the threshold | below the threshold | below the threshold | below the threshold | below the threshold | below the threshold | below the threshold | DHLGGGGESM [TNRC6A, Q8NDV7] | pKd (SHANK1, Q9Y566): below the threshold; pKd (SNTA1, Q13424): below the threshold; pKd (LNX2_2, Q8N448): below the threshold; pKd (PARD3B_1, Q8TEW8): 3.59 |
| below the threshold | below the threshold | below the threshold | below the threshold | below the threshold | below the threshold | below the threshold | 3.74 | below the threshold | 3.72 | 4.13 | below the threshold | below the threshold | below the threshold | below the threshold | below the threshold | below the threshold | below the threshold | below the threshold | below the threshold | HLRQQGSVEV [EPHB6, O15197] | pKd (SHANK1, Q9Y566): below the threshold; pKd (SNTA1, Q13424): below the threshold; pKd (LNX2_2, Q8N448): 5.03; pKd (PARD3B_1, Q8TEW8): 3.69 |
